Reference: article PMC5095980

Target: Human lactoferrin (human)
Test: small angle neutron scattering (SANS); iron containing samples in solution, 7 °C: iron saturated Lf (L3770; 100 mM MES, 150 mM NaCl, D2O) at pD 5 and pD 7, and partially saturated Lf (L3770 in the EDTA buffer, pD 5); concentration series 2.5-50 mg/ml, form factor extrapolated to c = 0, aggregates modelled by a Guinier term added to the monomer form factor

With Human lactoferrin (natural protein) the stoichiometry N was 10 monomers.
